The values below come from patent US20200113969A1.

Experiment [1] concerns the target MMP-9 present in HT29 extracellular media (human) (UniProt P14780). The experiment is described as follows: cell-based or functional assay.
Experiment [2] has as its target MMP-9 (commercial enzyme, Sigma) (UniProt P14780). The experiment can be described thus: cell-based or functional assay.

Sequence of MMP-9 (commercial enzyme, Sigma) (P14780 107-707 limits assumed): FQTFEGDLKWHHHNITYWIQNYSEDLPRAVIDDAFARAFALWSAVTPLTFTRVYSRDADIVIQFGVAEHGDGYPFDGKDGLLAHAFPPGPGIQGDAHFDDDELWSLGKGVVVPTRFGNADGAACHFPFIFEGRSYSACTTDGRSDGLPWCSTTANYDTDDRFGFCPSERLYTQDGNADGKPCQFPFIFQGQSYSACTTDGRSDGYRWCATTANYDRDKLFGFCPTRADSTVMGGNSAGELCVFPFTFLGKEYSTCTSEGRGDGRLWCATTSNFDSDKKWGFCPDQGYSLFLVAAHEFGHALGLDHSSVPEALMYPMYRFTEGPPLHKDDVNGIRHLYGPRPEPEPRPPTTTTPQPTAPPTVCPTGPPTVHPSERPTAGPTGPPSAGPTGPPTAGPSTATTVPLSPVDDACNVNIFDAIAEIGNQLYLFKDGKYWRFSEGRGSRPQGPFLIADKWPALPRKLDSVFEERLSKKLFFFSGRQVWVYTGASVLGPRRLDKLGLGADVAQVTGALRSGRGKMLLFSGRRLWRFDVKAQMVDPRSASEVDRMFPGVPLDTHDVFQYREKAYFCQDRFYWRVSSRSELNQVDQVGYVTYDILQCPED
Sequence of MMP-9 present in HT29 extracellular media (human) (P14780 20-707): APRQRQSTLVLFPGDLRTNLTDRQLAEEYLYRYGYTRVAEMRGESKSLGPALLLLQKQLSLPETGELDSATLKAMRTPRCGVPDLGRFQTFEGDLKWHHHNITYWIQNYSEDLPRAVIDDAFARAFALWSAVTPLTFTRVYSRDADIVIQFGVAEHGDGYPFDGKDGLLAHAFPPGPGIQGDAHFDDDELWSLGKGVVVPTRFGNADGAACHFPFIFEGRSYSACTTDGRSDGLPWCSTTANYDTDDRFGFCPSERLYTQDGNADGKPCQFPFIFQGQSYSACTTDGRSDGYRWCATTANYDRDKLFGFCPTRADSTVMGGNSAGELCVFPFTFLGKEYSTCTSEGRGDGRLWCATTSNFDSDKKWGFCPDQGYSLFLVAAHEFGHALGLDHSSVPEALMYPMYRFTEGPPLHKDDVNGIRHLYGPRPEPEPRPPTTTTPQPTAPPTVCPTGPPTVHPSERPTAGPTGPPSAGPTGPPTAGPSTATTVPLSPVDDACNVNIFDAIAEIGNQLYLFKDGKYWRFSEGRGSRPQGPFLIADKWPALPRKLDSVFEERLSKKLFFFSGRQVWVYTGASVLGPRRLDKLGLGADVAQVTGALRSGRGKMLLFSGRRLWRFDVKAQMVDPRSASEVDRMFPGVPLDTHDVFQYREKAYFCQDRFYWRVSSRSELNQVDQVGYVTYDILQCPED

In experiment [1], “deflamin isolated from Lupinus albus seeds (from UniProt Q53HY0 31-531; F5B8W8 73-152)” registered an EC50, MMP inhibition (gelatinolytic activity of HT29 media, DQ-gelatin) of 10 µg/mL and an MIC, MMP inhibition (gelatinolytic activity of HT29 media, DQ-gelatin) below 5 µg/mL. This substance had a gelatinolytic activity of MMP-9 on DQ-gelatin, deflamin at 100 µg/mL in experiment [2] above 90%.

In experiment [2], “fraction 4 of the size exclusion chromatography (Superdex 75) of the L. albus total protein extract” registered an MMP-9 inhibitory activity, DQ gelatin assay of 100%.
